Reference: PMC12520690 (2025)

Target: NaV1.5 CTD (Homo sapiens, UniProt Q14524)
Experiment: ITC

Sequence of NaV1.5 CTD (Q14524 1773-1940): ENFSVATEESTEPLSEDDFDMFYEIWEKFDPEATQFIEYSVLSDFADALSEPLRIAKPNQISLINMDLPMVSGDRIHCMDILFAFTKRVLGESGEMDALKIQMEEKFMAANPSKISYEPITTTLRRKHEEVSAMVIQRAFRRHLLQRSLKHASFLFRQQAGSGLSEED

B1: FGF13 (protein)
chain: MAAAIASSLIRQKRQAREREKSNACKCVSSPSKGKTSCDKNKLNVFSRVKLFGSKKRRRRRPEPQLKGIVTKLYSRQGYHLQLQADGTIDGTKDEDSTYTLFNLIPVGLRVVAIQGVQTKLYLAMNSEGYLYTSELFTPECKFKESVFENYYVTYSSMIYRQQQSGRGWYLGLNKEGEIMKGNHVKKNKPAAHFLPKPLKVAMYKEPSLHDLTEFSRSGSGTPTKSRSVSGVLNGGKSMSHNEST
  Kd: 123 nM
